Results as given in patent publication US20180346602A1.
Where a chain is given by its changes, count along the chain named.

B1: anti-AAA variant Fc-region antibody M1.6.22 (antibody, V domains shown)
VH: EVQLVESGGDLVKPGGSLKLSCAASGFTFSSYGMSWVRQTPDKRLEWVATISSGGSYIYYPDSVKGRFTISRDNAKNTLYLQMSSLKSEDTAMYYCARLGMITTGYAMDYWGQGTSVTVSS
VL: DVLMTQTPLSLPVSLGDQASISCRSSQTIVHSTGHTYLEWFLQKPGQSPKLLIYKVSNRFSGVPDRFSGSGSGTDFTLKISRVEAEDLGVYYCFQGSHVPYTFGGGTKLEIK
B2: anti-variant (human) Fc-region antibody M1.3.17 (antibody, V domains shown)
VH: EVKLLESGGGLVQPGGSLKLSCAASGIDFRRYWMNWVRQAPGKGLEWIGEIDPDSSTINYTPSLKDKFIISRDNAKNTMYLQMRKVRSEDTALYYCARPYDYGAWFAYWGQGTLVTVSA
VL: QAVVTQESALTTSPGETVTLTCRSTTGAVTTSNYANWVQEKPDHLFTGLIGGTNKRAPGVPARFSGSLIGDKAALTITGAQTEDEAIYFCALWYSDHWVFGGGTKLTVL
B3: anti-variant (human) Fc-region antibody M1.7.24 (antibody, V domains shown)
VH: B2 VH with I27F, R30S, D52T, M79L, R84I, A97V, Y108S
VL: B2 VL with T25S, D96N

Tests used:
[1] = target: anti-VEGF/ANG2 antibody (IgG1 subclass with mutations P329G/L234A/L235A/I253A/H310A/H435A) (human) [IgG part: P01857]; test: sandwich ELISA assay B; capture on SA plate; tracer M1.7.10-Dig; analyte 50 ng/mL
[2] = target: anti-VEGF/ANG2 antibody (IgG1 subclass with mutations P329G/L234A/L235A) (human) [IgG part: P01857]; test: as above
[3] = target: anti-P-Selectin antibody (IgG4 subclass with mutations S228P/L235E) (human) [IgG part: P01861]; test: as above
[4] = target: anti-IGF-1R antibody (IgG1 subclass with mutations I253A/H310A/H435A) (human) [IgG part: P01857]; test: as above
[5] = target: anti-VEGF/ANG2 antibody (wild-type IgG1 subclass) (human) [IgG part: P01857]; test: sandwich ELISA assay C; capture on SA plate; tracer FcγRI-Dig; analyte 2 ng/mL
[6] = target: anti-VEGF/ANG2 antibody (wild-type IgG1 subclass) (human) [IgG part: P01857]; test: sandwich ELISA assay C; capture on SA plate; tracer FcγRI-Dig; analyte 3 ng/mL
[7] = target: anti-VEGF/ANG2 antibody (wild-type IgG1 subclass) (human) [IgG part: P01857]; test: sandwich ELISA assay B; capture on SA plate; tracer M1.7.10-Dig; analyte 100 ng/mL
[8] = target: anti-VEGF/ANG2 antibody (wild-type IgG1 subclass) (human) [IgG part: P01857]; test: sandwich ELISA assay B; capture on SA plate; tracer M1.7.10-Dig; analyte 0 ng/mL (blank)
[9] = target: anti-VEGF/ANG2 antibody (wild-type IgG1 subclass) (human) [IgG part: P01857]; test: sandwich ELISA assay C; capture on SA plate; tracer FcγRI-Dig; analyte 25 ng/mL
[10] = target: anti-VEGF/ANG2 antibody (IgG1 subclass with mutations P329G/L234A/L235A) (human) [IgG part: P01857]; test: sandwich ELISA assay B; capture on SA plate; tracer M1.7.10-Dig; analyte 6 ng/mL
target antibodies = test: depletion of target antibody from sample; concentration before depletion 3.00 µg/mL
[11] = target: anti-VEGF/ANG2 antibody (IgG1 subclass with mutations P329G/L234A/L235A/I253A/H310A/H435A) [IgG part: P01857]; test: sandwich ELISA assay E; tracer M1.7.10-Dig; analyte 1) at 0 ng/mL (blank)
[12] = target: anti-Dig antibody (IgG1 subclass with mutations P329G/L234A/L235A) [IgG part: P01857]; test: sandwich ELISA assay D; tracer M1.19.31-Dig; analyte conc. not printed (row 3 of 8)
[13] = target: anti-Dig antibody (IgG1 subclass with mutations P329G/L234A/L235A) [IgG part: P01857]; test: sandwich ELISA assay D; tracer M1.19.31-Dig; analyte conc. not printed (row 2 of 8)
[14] = target: anti-Dig antibody (IgG1 subclass with mutations P329G/L234A/L235A) [IgG part: P01857]; test: sandwich ELISA assay D; tracer M1.7.10-Dig; analyte conc. not printed (row 6 of 8)
[15] = target: anti-Dig antibody (IgG1 subclass with mutations P329G/L234A/L235A) [IgG part: P01857]; test: sandwich ELISA assay D; tracer M1.19.31-Dig; analyte conc. not printed (row 1 of 8)
[16] = target: anti-VEGF/ANG2 antibody (IgG1 subclass with mutations P329G/L234A/L235A) [IgG part: P01857]; test: sandwich ELISA assay E; tracer M1.7.10-Dig; analyte 2) at 12.5 ng/mL
[17] = target: anti-Dig antibody (IgG1 subclass with mutations P329G/L234A/L235A) [IgG part: P01857]; test: sandwich ELISA assay D; tracer M1.7.10-Dig; analyte conc. not printed (row 8 of 8)
[18] = target: anti-VEGF/ANG2 antibody (IgG1 subclass with mutations P329G/L234A/L235A) [IgG part: P01857]; test: sandwich ELISA assay E; tracer M1.7.10-Dig; analyte 2) at 0 ng/mL (blank)
[19] = target: anti-Dig antibody (IgG1 subclass with mutations P329G/L234A/L235A) [IgG part: P01857]; test: sandwich ELISA assay D; tracer M1.19.31-Dig; analyte conc. not printed (row 5 of 8)
[20] = target: anti-VEGF/ANG2 antibody (IgG1 subclass with mutations P329G/L234A/L235A/I253A/H310A/H435A) [IgG part: P01857]; test: sandwich ELISA assay E; tracer M1.7.10-Dig; analyte 1) at 50 ng/mL
[21] = target: anti-VEGF/ANG2 antibody (IgG1 subclass with mutations P329G/L234A/L235A/I253A/H310A/H435A) [IgG part: P01857]; test: sandwich ELISA assay E; tracer M1.7.10-Dig; analyte 1) at 25 ng/mL
[22] = target: anti-VEGF/ANG2 antibody (IgG1 subclass with mutations P329G/L234A/L235A) [IgG part: P01857]; test: sandwich ELISA assay E; tracer M1.7.10-Dig; analyte 2) at 100 ng/mL
[23] = target: anti-Dig antibody (IgG1 subclass with mutations P329G/L234A/L235A) [IgG part: P01857]; test: sandwich ELISA assay D; tracer M1.7.10-Dig; analyte conc. not printed (row 7 of 8)

Row | Binder | signal [OD405 nm] [1] | signal [OD405 nm] [2] | signal [OD405 nm] [3] | signal [OD405 nm] [4] | signal [OD405 nm] [5] | signal [OD405 nm] [6] | signal [OD405 nm] [7] | signal [OD405 nm] [8] | signal [OD405 nm] [9] | signal [OD405 nm] [10] | concentration after depletion (target antibodies) | recovery [%] (target antibodies) | signal [OD405 nm] [11] | signal 10% cynomolgus serum [OD405 nm] [12] | signal 10% human serum [OD405 nm] [12] | signal buffer [OD405 nm] [12] | signal 10% cynomolgus serum [OD405 nm] [13] | signal 10% human serum [OD405 nm] [13] | signal buffer [OD405 nm] [13] | signal 10% cynomolgus serum [OD405 nm] [14] | also measured
1 | B1 | 0.05 OD405 nm | 0.127 OD405 nm | 0.047 OD405 nm | 2.9 OD405 nm | 0.077 OD405 nm | 0.069 OD405 nm | 0.061 OD405 nm | 0.037 OD405 nm | 0.066 OD405 nm | 0.053 OD405 nm | 0.0023 µg/mL | 0.008% |  |  |  |  |  |  |  |  | 
2 | B2 | 0.035 OD405 nm | 0.215 OD405 nm | 0.049 OD405 nm | 0.048 OD405 nm |  |  |  |  |  | 0.196 OD405 nm | 0.0023 µg/mL | 0.078% | 0.027 OD405 nm | 0.357 OD405 nm | 1.84 OD405 nm | 0.04 OD405 nm | 0.872 OD405 nm | 2.14 OD405 nm | 0.041 OD405 nm | 0.065 OD405 nm | signal 10% human serum [OD405 nm] [14]: 2.53 OD405 nm; signal buffer [OD405 nm] [14]: 0.032 OD405 nm; signal 10% cynomolgus serum [OD405 nm] [15]: 1.87 OD405 nm; signal 10% human serum [OD405 nm] [15]: 2.58 OD405 nm; signal buffer [OD405 nm] [15]: 0.05 OD405 nm; signal [OD405 nm] [16]: 0.96 OD405 nm; signal 10% cynomolgus serum [OD405 nm] [17]: 0.044 OD405 nm; signal 10% human serum [OD405 nm] [17]: 2.51 OD405 nm; signal buffer [OD405 nm] [17]: 0.031 OD405 nm; signal [OD405 nm] [18]: 0.027 OD405 nm; signal 10% cynomolgus serum [OD405 nm] [19]: 0.105 OD405 nm; signal 10% human serum [OD405 nm] [19]: 1.71 OD405 nm; signal buffer [OD405 nm] [19]: 0.036 OD405 nm; signal [OD405 nm] [20]: 1.95 OD405 nm; signal [OD405 nm] [21]: 1.6 OD405 nm; signal [OD405 nm] [22]: 2.27 OD405 nm; signal 10% cynomolgus serum [OD405 nm] [23]: 0.052 OD405 nm; signal 10% human serum [OD405 nm] [23]: 2.53 OD405 nm; signal buffer [OD405 nm] [23]: 0.029 OD405 nm
3 | B3 | 0.06 OD405 nm | 3.17 OD405 nm | 0.043 OD405 nm | 0.064 OD405 nm | 0.058 OD405 nm | 0.053 OD405 nm | 0.047 OD405 nm | 0.039 OD405 nm | 0.063 OD405 nm | 2.98 OD405 nm |  |  | 0.025 OD405 nm | 0.438 OD405 nm | 1.6 OD405 nm | 0.045 OD405 nm | 1.17 OD405 nm | 2.04 OD405 nm | 0.051 OD405 nm | 0.05 OD405 nm | signal 10% human serum [OD405 nm] [14]: 2.4 OD405 nm; signal buffer [OD405 nm] [14]: 0.031 OD405 nm; signal 10% cynomolgus serum [OD405 nm] [15]: 2.25 OD405 nm; signal 10% human serum [OD405 nm] [15]: 2.5 OD405 nm; signal buffer [OD405 nm] [15]: 0.054 OD405 nm; signal [OD405 nm] [16]: 0.884 OD405 nm; signal 10% cynomolgus serum [OD405 nm] [17]: 0.031 OD405 nm; signal 10% human serum [OD405 nm] [17]: 2.45 OD405 nm; signal buffer [OD405 nm] [17]: 0.033 OD405 nm; signal [OD405 nm] [18]: 0.028 OD405 nm; signal 10% cynomolgus serum [OD405 nm] [19]: 0.078 OD405 nm; signal 10% human serum [OD405 nm] [19]: 1.33 OD405 nm; signal buffer [OD405 nm] [19]: 0.033 OD405 nm; signal [OD405 nm] [20]: 1.94 OD405 nm; signal [OD405 nm] [21]: 1.55 OD405 nm; signal [OD405 nm] [22]: 2.22 OD405 nm; signal 10% cynomolgus serum [OD405 nm] [23]: 0.041 OD405 nm; signal 10% human serum [OD405 nm] [23]: 2.44 OD405 nm; signal buffer [OD405 nm] [23]: 0.034 OD405 nm
